# Source: the DeepSol protein solubility set
# Assay: soluble on expression in E. coli; label from the status in PepcDB or PDB records
row,Sequence,soluble on expression in E. coli
1,QRHQKNQNQQRIQALLEESQRRLKQMINKTHVGLLLINEQGQLFDLNPMAKRLFCLPENVNRQTFAWELFDAGNPNSTTLTLLRDLPKHKELAEISAVETMARRSDGSVFPVLFSLTTFPWHGELYFLATLIDISKRKKAEQSLQLINQELAQRVEERTQALRQAQEQLIESSKMAALGRMSSAITHELNQPLTGLRTLLTTNELLAERGETAMMKANNVLVQKLIDRMASMTSQLKTFAYNKPEKLQALSLTSALEETLRVYQSQLANVDVRVRIPSDLPQIQGEEQRLQQVLGNLISNALDAMQSRDNPQLSIVVTPTNSHVEVVVSDNGCGVALEQLDTIFEPFQTSKKIGEGLGLGLSITANNMRDMNGQVTAKRNPGSGMSFLLRFQLANTID,not soluble
2,TGIEQLEFQRESSVSTTLQGVCEPILAILVQGKKEALLCDETYRYSAAQYLVVSVDLPLSAFIVEATPEKPYLGFKLNLDPRQLCDIITAQTNVIEEKKNSVRGLFVSTIDAPLLDCAMRLTRLLDTPQDIPILAPMIIREIYYRLLMGEQGEAV,not soluble
3,MSQFEKQKEQGNSLFKQGLYREAVHCYDQLITAQPQNPVGYSNKAMALIKLGEYTQAIQMCQQGLRYTSTAEHVAIRSKLQYRLELAQGAVGSVQIPVVEVDELPEGYDRS,not soluble
4,MGHHHHHHSHMEIPPTNYPASRAALVAQNYINYQQGTPHRVFEVQKVKQASMEDIPGRGHKYHLKFAVEEIIQKQVKVNCTAEVLYPSTGQETAPEVNFTFEGETGKNPDEEDNTFYQRLKSMKEPLEAQNIPDNFGNVSPEMTLVLHLAWVACGYIIWQNSTEDTWYKMVKIQTVKQVQRNDDFIELDYTILLHNIASQEIIPWQMQVLWHPQYGTKVKHNSRLPKEVQLE,not soluble
5,MGSDKIHHHHHHAQTYQQLSEKAIEYIEMDSLSKAEELLLQALKLEPKNAKNAMLFSNLGLVQRRLGEYDKALESYSFALNFAPLAVPILLDRAAINLEMGNTDRAYTDYCQVLDEDKQNKEALLMRAYIYVLRRDYPAARIDYNRLLEIDPQSYSGRLGLATLEQKEGKFKEALEILNKMITATPEDATLYIARADVEREMKHEDLALVDLEEAIRLNPSSADAYLLRGNIYLTQKKKALAKMDFEKAISLGIPPADLHEQLKQCK,not soluble
6,MDDPKQPTWNVSPSLRRHARELRKKSTEAERLMWGELRDKRLNGFSFKRQVPIGPYIADFACHAKKLVVELDGGQHFSDDGERSDAARTAAIEARGFRVIRFSNHEVMTNRAGVLQSIADVLAARVLTPTLSRKRERERAKRAAKPRSDAGAANDQGDE,not soluble
7,MGSDKIHHHHHHMIINRSCLKEFAEKVHFLPSSLTKSDLLTDPFRLHQENELGIYYSPHNEFINRDASLVIAGITPGFSQMKTAYETAAESLLQGGTLEQMAVDTKIAAGFSGSMRHNLITMLDLCGLPQAFGIQSAAKLFGELRHMLHTTSVIKYPVFIQQKNYTGYKPAITHSPILSTYAFGHFPAELNHVTGPALLIPLGKAAETVCETLIRQHSLQNLICLNGFPHPSGANGHRLKQFSKNKEQLERQIRSFAALVDFAIEKRK,not soluble
8,MTWLLFGAGNGVGGCLLQRAIECEQAVVLVLRNPEQAKHWREQGVTVVEGDACDPETVAEACRVAGPSAIVVSTMGGGTVNYQGHRTVIDGAEQAGIKRMLLVTSLGCGDSWPLLSPRARAAFGFAVREKSLAESWLQSSTLDHCIVRPGGLLDVVATHNAKLTQGAATLGLVSRSDVALAVDQLLQQPVFGNHIYNLIDPDLTMPAIPLEHHHHHH,not soluble
9,MSLVLGNAWLVLADRVIEHGWVAIADGVIAEVGEGDAPNGAKDMHGDLVMPGLVELHTDHLEAHYTPRPKVQWNPVAAVVSYDGQLATCGITTVLDSLRVWREEGAEEVDGQAIVLAGAISTARDAQLLRADHFLHLRCEIPMPNVVAEAKELIDRPDIRLMSLMDHTPGQRQFRDEEKLRDYYRGKGAGMTDAELDVMFARRVYCKENYADANMRAIVELAHRYEIPLASHDDTTPENVADAIRDRVAVAEFPTTLEAARELHQAGIDILMGAPNVVRGGSHSGNIAAIDLAHEGLLDILSSDYIPSSLLIAALQLPMRAPGIDLAAAIRTVTKAPAEAVGLNDRGEISKGKRADLIRVHVAHDVPAVRSVWREGQRVAEGHHHHHH,soluble
10,MSTLRLLISDSYDPWFNLAVEECIFRQMPATQRVLFLWRNADTVVIGRAQNPWKECNTRRMEEDNVRLARRSSGGGAVFHDLGNTCFTFMAGKPEYDKTISTSIVLNALNALGVSAEASGRNDLVVKTVEGDRKVSGSAYRETKDRGFHHGTLLLNADLSRLANYLNPDKKKLAAKGITSVRSRVTNLTELLPGITHEQVCEAITEAFFAHYGERVEAEIISPNKTPDLPNFAETFARQSSWEWNFGQAPAFSHLLDERFTWGGVELHFDVEKGHITRAQVFTDSLNPAPLEALAGRLQGCLYRADMLQQECEALLVDFPEQEKELRELSAWMAGAVR,soluble
11,MEHFLQYVWQHRLYSSLSYGADAFFLEPEVIDPGMLNRDSGPDFFNAKVKVGDLLWAGNVEIHCRASDWVRHGHHLDPAYDNVVLHVVETDDLPIRHRISGEPVPVCVMHVDERLRANADFMLRTSLLPGCKDRLHELDSLEVHDWLDTLVVERLERKAAEVDRLYLSTSMDWNATAYILLARHFGFGLNNDALERLARSLPFAAIAKHRSNLLQVEALLLGQAGLLADLEDEYAEKLASEYAFLRHKFDLQPLDPSLFRLHRARPASFVHRRLGQLAAILHRCEFLFSSFVETVSAKELAQKLSVEASSYWASHYRFGKPTPVPSRSTLAAISSDALLINVAAPLRYAWLRGQSMEDYRERTIDFLRGIKPENNKPVRAFSQICRPADAAESQALIQLYREYCERRKCFFCRWGYRLLSCCKG,not soluble
12,MPAIVCQSALEAVSLIRSGETLWTHSMGATPKVLLDALAKHALTLDNITLLQLHTEGAESLSHPSLLGHLRHRCFFGGVPTRPLLQSGDADYVPIFLSEVPKLFRSGEQKIDTAIIQVSPPDKHGMCSLGISVEATLAACQVAGKIIAHINPQMPRTHGDGFIHIDRFAAVYEQSASLPIHSFATGDAVSLAIGQHVAELVRDGDCLQMGIGAIPDAVLSCLTGHKDLGVHTELFSDGILQLVEKGVINNTKKRFYPGKLVTGFALGSQKLYDYVDDNPAVIFMDIEQVNDTSIIRKNPNVMAINSALQVDLTGQVCADSIGTKIYSGVGGQMDFIRGAGLSEGGRSVIALPSTAAGGRISRIASVLSPGAGVVTTRAHVHYIVTEYGAANLKGRSLRERAQALINIAHPDFREQLSRDAFEVWGLNLLEHHHHHH,soluble
13,MFSDYHVHSSFSFDSEESPRAIVEKAIALGMKQICFTDHQDFNWPIKGESPYIDFPKYFEVLNSLRNEYSSKINILKGVELGLTSDNFSLCHKFLDSYDFDFVIGSCHIVDQMDPYYAEFWKGKNDRDCFELYFKTLLDSLKFFIGRNTCTTPRTVNTLGHLDYIVRYSPNKDNNYSVADYIDVIDEILKMIIENDIKLEINTSNFSKGFDFPNPHTDIIRRYKELGGLYVTVGSDAHKAQFIGSGFDLVEKIVEKYKLKVFTI,not soluble
14,MIDLYFAPTPNGHKITLFLEEAELDYRLIKVDLGKGGQFRPEFLRISPNNKIPAIVDHSPADGGEPLSLFESGAILLYLAEKTGLFLSHETRERAATLQWLFWQVGGLGPMLGQNHHFNHAAPQTIPYAIERYQVETQRLYHVLNKRLENSPWLGGENYSIADIACWPWVNAWTRQRIDLAMYPAVKNWHERIRSRPATGQALLKAQLGDERSDS,soluble
15,YDKRIHRFRKGWNSLIPTHNKIQYAGNMGMFSFGTGWDYGKRDQWETDLFFGFIPKHDSHRAKMTMTLKQNYMPWSLELGKGFSTEPLACGIYFNTVFGHEFWVHEPSRYPEGYYGFSSKIRTHIFLGQRLTYDIDRERRFFAKSVTLFYELSTCDLLLISRVTNSYLRARDYLSLSFGLKFQWL,not soluble
16,MGSDKIHHHHHHMDTKAFKRALHQSDRYNRKGFGKTTDVSGALESAYQSDLIQSLRQNGYRLQRGEITIRLAEAFGFCWGVERAVAIAYETRQHFPQERIWITNEIIHNPSVNQHLREMSVEFIPCERGEKDFSVVDRGDVVILPAFGASVQEMQLLDEKGCHIVDTTCPWVSKVWNTVEKHKRGAHTSIIHGKYNHEETVATSSFAETYLVVLNLEQAQYVCDYILNGGDRDEFMTRFGKACSAGFDPDRDLERIGIANQTTMLKSETEAIGKLFERTLLKKYGPQALNDHFLAFNTICDATQERQDAMFQLVEEPLDLIVVIGGFNSSNTTHLQEIAIERQIPSFHIDAAERIGPGNRIEHKPLHTDLTTTEPWLPAGPLTIGITSGASTPDKVVEDVIERLFDLQRS,not soluble
17,MSTEHLTPELLRLADSTPGFMPEDEGTALHEAAMQYLPPGGVGVEIGTYCGRSTIYLGAAAKARAARIVTIDHHHGSEEHQPGWEYHEPAFVDPHTGLLDTVGRFRHTMADSGLEDYVVGVLGRSSTVATFWRTPVHFVFIDGGHTSEAASADLEGWAPWVNVGGALVIHDVFPDPADGGRPPFEIYERALATGQFKETSVTGSLRVLERVGGQTGEPLA,not soluble
18,PDLIYYRNADGVFSGCNRAMEELTGKKEHQLVGLSPWDVYSKEIAQPIVDTDQKVFSDNQAITYEQWLEYPDGRKHYFELRKVPFYSKD,not soluble
19,MLQSNEYFSGKVKSIGFSSSSTGRASVGVMVEGEYTFSTAEPEEMTVISGALNVLLPDATDWQVYEAGSVFNVPGHSEFHLQVAEPTSYLCRYL,soluble
20,MTIYQHLLILWSSLFASTFAGTAEEVAKHLELGSQFLARAQFADALTQYHAAIELDPKSYQAIYRRATTYLAMGRGKAAIVDLERVLELKPDFYGARIQRGNILLKQGELEAAEADFNIVLNHDSSNNDVQEKTALIEQHRQLRHQIKSAYAGGDCATVEEYINHIIEIQVWDASLYRMRAKCLEERGELKKAIHDMRIVSKLSTDSTDTMFETSKLLYTVGDLEESLNVIRECLKLNPDHKSCYPFYKKLRKVVKSLESMKKKVENSDWMACLEEGQKTMKFDPTPSVQLNVFRITNRCQREAGHISEAIAECNEILNDDPSDADILCERAEAHILDEDYDSAIEDYQKATEVNPDHREAKEGLEHAKRLKTQAGKRDYYKILGVKRNASKREITKAYRKLAQKWHPDNFSDEEEKKKAEKKFIDIAAAKEVLQDEEKRRQFDQGVDPLDPEAQRQGGGHHGGFGHGFPHGFHHFGGGGGGEHSFKFNWG,not soluble
21,LAVLMVLAVNFGTVTTFAAMSDEAESISVNKPVTDNLSSVNDVKYYEVELPAPGKVNLSFSHANLERTYVYWKVTMFDSVENEVLYFESTGTNTDGKSMSVYLDKGTYYVRVKSEGYWYSTTDYTLCVNYTENKGEYEIEPNYSKELATEISVNKPVIGNHRVKGDTDFYKFTISEPGKVDLSFNHANLERTYVYWKVTMFDSVENIVLYFESTGTNTTGKSMNAYLSEGTYYIRVTTDDYWHSTADYTLCVNYTENQGEYEIEPNNSQDNATLIEVDEPVTGNLRTSSDVDYYRFVMPDSGKVYLGFNHPNLERTYVYWKVSLYDANGNRLYQLNSRGTDTVGKSDEIKIGSGTYYVKVEYEGYWHSSADYSLTVNTVGGIPKVKVFLNGKRIRFDQPPIIQNGRTLVPLRAIFEAMNATVSWDDKTKTVTAKKGDTTIVMTIGNKTMKKNGVAIELDVPPQIVNGRTLVPARAVAESFGAKVDWDGSTRTVTITEGN,not soluble
